Legend:
Details in all cases: source organism: Hepatitis B virus
HLA-B*51:01 [1] = assay: IEDB peptide-MHC binding, purified MHC/competitive/radioactivity; filed as Kd, often an IC50 or EC50 that approximates it; ≥ and ≤ were set here for values at or beyond the usual limits of such assays
HLA-A*02:06 = assay: as above
HLA-A*03:01 [2] = assay: as above
HLA-A*68:01 [3] = assay: as above
HLA-A*03:01 [4] = assay: IEDB peptide-MHC binding, purified MHC/competitive/radioactivity; ≥ and ≤ were set here for values at or beyond the usual limits of such assays
HLA-A*31:01 = assay: IEDB peptide-MHC binding, purified MHC/competitive/radioactivity; filed as Kd, often an IC50 or EC50 that approximates it; ≥ and ≤ were set here for values at or beyond the usual limits of such assays
HLA-A*33:01 = assay: as above
HLA-B*35:01 = assay: IEDB peptide-MHC binding, purified MHC/competitive/radioactivity; ≥ and ≤ were set here for values at or beyond the usual limits of such assays
HLA-B*51:01 [5] = assay: as above
HLA-A*68:01 [6] = assay: as above
HLA-A*02:03 = assay: IEDB peptide-MHC binding, purified MHC/competitive/radioactivity; filed as Kd, often an IC50 or EC50 that approximates it; ≥ and ≤ were set here for values at or beyond the usual limits of such assays
HLA-B*53:01 = assay: IEDB peptide-MHC binding, purified MHC/competitive/radioactivity; ≥ and ≤ were set here for values at or beyond the usual limits of such assays

Sequence | Kd (HLA-A*68:01 [3]) [µM] | Kd (HLA-A*31:01) [µM] | Kd (HLA-A*33:01) [µM] | other results
DPSRGRLGL |  |  |  | Kd (HLA-B*51:01 [1]): ≥ 25 µM
GLLGWSPQA |  |  |  | Kd (HLA-A*02:06): 1.32 µM
GTDNSVVLSR | ≥ 20 |  |  | Kd (HLA-A*03:01 [2]): ≥ 10 µM
GTDNSVVLSRK | ≥ 25 | ≥ 25 | ≥ 25 | IC50 (HLA-A*03:01 [4]): 0.786 µM
HTLWKAGILY |  | ≥ 25 |  | 
IPIPSSWAF |  |  |  | IC50 (HLA-B*35:01): 0.0026 µM; IC50 (HLA-B*51:01 [5]): 0.22 µM
KVGNFTGLY | ≥ 25 | ≥ 25 | ≥ 25 | 
MMWYWGPSLY | ≥ 25 | ≥ 25 | ≥ 25 | 
PVNRPIDWK |  | ≥ 25 | ≥ 25 | 
RVTGGVFLVDK | ≥ 25 | ≥ 25 | ≥ 25 | IC50 (HLA-A*03:01 [4]): 0.579 µM
TLWKAGILY | ≥ 25 |  | ≥ 25 | 
TPARVTGGVF |  |  |  | Kd (HLA-B*51:01 [1]): ≥ 25 µM
VTGGVFLVDK |  | ≥ 25 |  | 
VVDFSQFSR |  |  |  | IC50 (HLA-A*68:01 [6]): 0.32 µM
YMDDVVLGA |  |  |  | Kd (HLA-A*02:03): 4.17 µM; Kd (HLA-A*02:06): ≥ 25 µM
YMDDVVLGAK | ≥ 25 | ≥ 25 | ≥ 25 | 
YPALMPLYA |  |  |  | IC50 (HLA-B*35:01): 0.15 µM; IC50 (HLA-B*51:01 [5]): 0.162 µM; IC50 (HLA-B*53:01): 0.664 µM

Source: the Immune Epitope Database (IEDB)
